Columns and labels:
[1] = biological target: recombinant homotrimeric HA A/California/4/09 H1N1 (Influenza A virus …); test: protein microarray, purified IgG, trimeric HA
[2] = biological target: recombinant homotrimeric HA A/Solomon Islands/3/06 H1N1 (Influenza A virus A/Solomon …); test: protein microarray, purified IgG, trimeric HA
[3] = biological target: recombinant homotrimeric HA A/South Carolina/1/18 H1N1 (Influenza A virus A/South Carolina/1/18 …); test: protein microarray, purified IgG, trimeric HA
[4] = biological target: recombinant homotrimeric HA A/Japan/305/57 H2N2 (Influenza A virus A/Japan/305/1957(H2N2)); test: protein microarray, purified IgG, trimeric HA
[5] = biological target: recombinant homotrimeric HA A/Wisconsin/67/05 H3N2 (Influenza A virus …); test: protein microarray, purified IgG, trimeric HA
[6] = biological target: recombinant homotrimeric HA A/swine/Ontario/01911-2/99 H4N6 (Influenza A virus …); test: protein microarray, purified IgG, trimeric HA
[7] = biological target: recombinant homotrimeric HA A/Vietnam/1203/04 H5N1 (Influenza A virus …); test: protein microarray, purified IgG, trimeric HA
[8] = biological target: recombinant homotrimeric HA A/Indonesia/5/05 H5N1 (Influenza A virus …); test: protein microarray, purified IgG, trimeric HA
[9] = biological target: recombinant homotrimeric HA A/Egypt/3300-NAMRU3/08 H5N1 (Influenza A virus …); test: protein microarray, purified IgG, trimeric HA
[10] = biological target: recombinant homotrimeric HA A/Anhui/1/05 H5N1 (Influenza A virus A/Anhui/1/2005(H5N1)); test: protein microarray, purified IgG, trimeric HA
[11] = biological target: recombinant homotrimeric HA A/chicken/Vietnam/NCVD-016/08 H5N1 (Influenza A virus …); test: protein microarray, purified IgG, trimeric HA
[12] = biological target: recombinant homotrimeric HA A/Hong Kong/156/97 H5N1 (Influenza A virus A/Hong Kong/156/97 …); test: protein microarray, purified IgG, trimeric HA
[13] = biological target: recombinant homotrimeric HA A/northern shoveler/California/HKWF115/07 H6N4 (Influenza A virus A/northern …); test: protein microarray, purified IgG, trimeric HA
[14] = biological target: recombinant homotrimeric HA A/Netherlands/219/03 H7N7 (Influenza A virus …); test: protein microarray, purified IgG, trimeric HA
[15] = biological target: recombinant homotrimeric HA A/duck/Yangzhou/02/05 H8N4 (Influenza A virus …); test: protein microarray, purified IgG, trimeric HA
[16] = biological target: recombinant homotrimeric HA A/Hong Kong/2108/03 H9N2 (Influenza A virus A/HK/2108/2003(H9N2)); test: protein microarray, purified IgG, trimeric HA
[17] = biological target: recombinant homotrimeric HA A/Hong Kong/1073/99 H9N2 (Influenza A virus A/Hong Kong/1073/99 …); test: protein microarray, purified IgG, trimeric HA
[18] = biological target: T1, hemagglutinin (HA) of influenza A/Japan/305/57 (H2N2) on whole virions (Influenza A virus A/Japan/305/1957(H2N2), UniProt P03451 16-562); test: ELISA, purified IgG on inactivated whole virions
[19] = biological target: T1, hemagglutinin (HA) of influenza …; test: ELISA; BCC supernatant on coated inactivated whole virions
[20] = biological target: recombinant soluble homotrimeric HA of A/California/4/09 (H1N1) (Influenza A virus …); test: trimeric HA microarray, transfection supernatant set 3
[21] = biological target: recombinant soluble homotrimeric HA of A/Solomon Islands/3/06 (H1N1) (Influenza A virus A/Solomon …); test: as above
[22] = biological target: recombinant soluble homotrimeric HA of A/South Carolina/1/18 (H1N1) (Influenza A virus A/South Carolina/1/18 …); test: as above
[23] = biological target: recombinant soluble homotrimeric HA of A/Japan/305/57 (H2N2) (Influenza A virus A/Japan/305/1957(H2N2)); test: as above
[24] = biological target: recombinant soluble homotrimeric HA of A/Wisconsin/67/05 (H3N2) (Influenza A virus …); test: as above
[25] = biological target: recombinant soluble homotrimeric HA of A/Vietnam/1203/04 (H5N1) (Influenza A virus …); test: as above
[26] = biological target: recombinant soluble homotrimeric HA of A/Indonesia/5/05 (H5N1) (Influenza A virus …); test: as above
[27] = biological target: recombinant soluble homotrimeric HA of A/Egypt/3300-NAMRU3/08 (H5N1) (Influenza A virus …); test: as above
[28] = biological target: recombinant soluble homotrimeric HA of A/Anhui/1/05 (H5N1) (Influenza A virus A/Anhui/1/2005(H5N1)); test: as above
[29] = biological target: recombinant soluble homotrimeric HA of A/chicken/Vietnam/NCVD-016/08 (H5N1) (Influenza A virus …); test: as above
[30] = biological target: recombinant soluble homotrimeric HA of A/northern shoveler/California/HKWF115/07 (H6) (Influenza A virus A/northern …); test: as above
[31] = biological target: recombinant soluble homotrimeric HA of A/Netherlands/219/03 (H7N7) (Influenza A virus …); test: as above
[32] = biological target: recombinant soluble homotrimeric HA of A/duck/Yangzhou/02/05 (H8N4) (Influenza A virus …); test: as above
[33] = biological target: recombinant soluble homotrimeric HA of A/Hong Kong/2108/03 (H9N2) (Influenza A virus A/HK/2108/2003(H9N2)); test: as above
[34] = biological target: recombinant soluble homotrimeric HA of A/Hong Kong/1073/99 (H9N2) (Influenza A virus A/Hong Kong/1073/99 …); test: as above
[35] = biological target: recombinant soluble homotrimeric HA of A/California/4/09 (H1N1) (Influenza A virus …); test: HA microarray, BCC supernatant
[36] = biological target: recombinant soluble homotrimeric HA of A/Solomon Islands/3/06 (H1N1) (Influenza A virus A/Solomon …); test: HA microarray, BCC supernatant
[37] = biological target: recombinant soluble homotrimeric HA of A/Japan/305/57 (H2N2) (Influenza A virus A/Japan/305/1957(H2N2)); test: HA microarray, BCC supernatant
[38] = biological target: recombinant soluble homotrimeric HA of A/Wisconsin/67/05 (H3N2) (Influenza A virus …); test: HA microarray, BCC supernatant
[39] = biological target: recombinant soluble homotrimeric HA of A/swine/Ontario/01911-2/99 (H4N6) (Influenza A virus …); test: HA microarray, BCC supernatant
[40] = biological target: recombinant soluble homotrimeric HA of A/Vietnam/1203/04 (H5N1) (Influenza A virus …); test: HA microarray, BCC supernatant
[41] = biological target: recombinant soluble homotrimeric HA of A/Indonesia/5/05 (H5N1) (Influenza A virus …); test: HA microarray, BCC supernatant
[42] = biological target: recombinant soluble homotrimeric HA of A/Egypt/3300-NAMRU3/08 (H5N1) (Influenza A virus …); test: HA microarray, BCC supernatant
[43] = biological target: recombinant soluble homotrimeric HA of A/Anhui/1/05 (H5N1) (Influenza A virus A/Anhui/1/2005(H5N1)); test: HA microarray, BCC supernatant
[44] = biological target: recombinant soluble homotrimeric HA of A/chicken/Vietnam/NCVD-016/08 (H5N1) (Influenza A virus …); test: HA microarray, BCC supernatant
[45] = biological target: recombinant soluble homotrimeric HA of A/northern shoveler/California/HKWF115/07 (H6) (Influenza A virus A/northern …); test: HA microarray, BCC supernatant
[46] = biological target: recombinant soluble homotrimeric HA of A/Netherlands/219/03 (H7N7) (Influenza A virus …); test: HA microarray, BCC supernatant
[47] = biological target: recombinant soluble homotrimeric HA of A/duck/Yangzhou/02/05 (H8N4) (Influenza A virus …); test: HA microarray, BCC supernatant
[48] = biological target: recombinant soluble homotrimeric HA of A/Hong Kong/2108/03 (H9N2) (Influenza A virus A/HK/2108/2003(H9N2)); test: HA microarray, BCC supernatant

B1: TCN-556 (5089_K12) (antibody, V domains shown)
VH: QVQLVQSGAEVKKPGASVKVSCKASGYTFIGYDMHWVRQAPGQGLEWMGWINAKRGGTNYAQKFQGRVTMTRDTSISTAYMELNSLRSDDTAVYYCARGVGSRTTIFGVLNPEFDYWGQGTLVTVSS
VL: QSALTQPPSASGSPGQSVTISCTGSSSDVGGYDYVSWYQQHPGKAPKLLIYEVTKRPSGVPDRFSGSKSGNTASLTVSGLQAEDEADYYCSSYAGNYNHVFGPGTKVTVL
[1]
  Trimeric HA Binding: RLU: 25800 RLU
[2]
  Trimeric HA Binding: RLU: 24300 RLU
[3]
  Trimeric HA Binding: RLU: 21000 RLU
[4]
  Trimeric HA Binding: RLU: 25800 RLU
[5]
  Trimeric HA Binding: RLU: 2360 RLU
[6]
  Trimeric HA Binding: RLU: 24100 RLU
[7]
  Trimeric HA Binding: RLU: 21500 RLU
[8]
  Trimeric HA Binding: RLU: 23000 RLU
[9]
  Trimeric HA Binding: RLU: 24800 RLU
[10]
  Trimeric HA Binding: RLU: 26900 RLU
[11]
  Trimeric HA Binding: RLU: 22400 RLU
[12]
  Trimeric HA Binding: RLU: 18600 RLU
[13]
  Trimeric HA Binding: RLU: 25000 RLU
[14]
  Trimeric HA Binding: RLU: 21000 RLU
[15]
  Trimeric HA Binding: RLU: 18300 RLU
[16]
  Trimeric HA Binding: RLU: 25600 RLU
[17]
  Trimeric HA Binding: RLU: 995 RLU

B2: TCN-532 (5262_H18) (antibody, V domains shown)
VH: QVQLQESGPGLVKPSETLSLTCTVSGGSVSSETYYWSWIRQPPGKGLEWIGYIYYIGNTDYRPSLKSRVTISLDTSKNQFSLKLSSVTAADTAVYYCARGAYYDSSGYPAFYIWGQGTMVTVSS
VL: QSVLTQPPSVSGAPGQRVTISCTGSSSNIGSDYDVHWYKQLPGTAPKLLIFGNSNRPSGVPDRFSGSKSGTSASLAITGLQAEDEADYYCQSYDSSLSGFHVFGSGTKVTVL
[18]
  binding result: no binding
[19]
  ELISA virus binding (OD450): 0.07 OD450

B3: TCN-533 (5256_A17a) (antibody, V domains shown)
VH: QVQLVQSGADVKKPGSSVTVSCKASGGSFSNYGINWVRQAPGQGLEWMGGIIPLINAPNYAPKFQGRVTITADMFSNIVSLQLTSLRTDDTAVYYCARRKMTTAIDYWGQGTLVTVSS
VL: QPVLTQPPSASASLGASVTLTCTLSSAYSNYKVDWYQQRPGKGPRFVMRVGTGGIVGSKGDGIPDRFSVLGSGLNRYLTIKNIQEEDESDYHCGADHGSGSNFVSPYVFGGGTKLTVL
[20]
  Trimeric HA Binding: RLU: 6880 RLU
[21]
  Trimeric HA Binding: RLU: 15500 RLU
[22]
  Trimeric HA Binding: RLU: 16400 RLU
[23]
  Trimeric HA Binding: RLU: 18600 RLU
[24]
  Trimeric HA Binding: RLU: 16100 RLU
[25]
  Trimeric HA Binding: RLU: 11700 RLU
[26]
  Trimeric HA Binding: RLU: 28300 RLU
[27]
  Trimeric HA Binding: RLU: 18600 RLU
[28]
  Trimeric HA Binding: RLU: 301 RLU
[29]
  Trimeric HA Binding: RLU: 24600 RLU
[30]
  Trimeric HA Binding: RLU: 7810 RLU
[31]
  Trimeric HA Binding: RLU: 209 RLU
[32]
  Trimeric HA Binding: RLU: 711 RLU
[33]
  Trimeric HA Binding: RLU: 33 RLU
[34]
  Trimeric HA Binding: RLU: 23800 RLU

B4: TCN-533 (5256_A17a) (antibody, V domains shown)
VH: QVQLVQSGADVKKPGSSVTVSCKASGGSFSNYGINWVRQAPGQGLEWMGGIIPLINAPNYAPKFQGRVTITADMFSNIVSLQLTSLRTDDTAVYYCARRKMTTAIDYWGQGTLVTVSS
VL: QPVLTQPPSASASLGASVTLTCTLSSAYSNYKVDWYQQRPGKGPRFVMRVGTGGIVGSKGDGIPDRFSVLGSGLNRYLTIKNIQEEDESDYHCGADHGSGSNFVSPYVFGGGTKLTVL
[35]
  Trimeric HA Binding: RLU: 29300 RLU
[36]
  Trimeric HA Binding: RLU: 39200 RLU
[37]
  Trimeric HA Binding: RLU: 10800 RLU
[38]
  Trimeric HA Binding: RLU: 13800 RLU
[39]
  Trimeric HA Binding: RLU: 1580 RLU
[40]
  Trimeric HA Binding: RLU: 5680 RLU
[41]
  Trimeric HA Binding: RLU: 44100 RLU
[42]
  Trimeric HA Binding: RLU: 34300 RLU
[43]
  Trimeric HA Binding: RLU: 8060 RLU
[44]
  Trimeric HA Binding: RLU: 47700 RLU
[45]
  Trimeric HA Binding: RLU: 41400 RLU
[46]
  Trimeric HA Binding: RLU: 2470 RLU
[47]
  Trimeric HA Binding: RLU: 24700 RLU
[48]
  Trimeric HA Binding: RLU: 172 RLU

From patent US20150086555A1 (THERACLONE SCIENCES, published 2015)
